Experimental data published in patent publication US20140087995A1 (published 2014).
Numbered stars: 1 amine (or outer) side, 2 acyl side, 3 side chain; on linkers, the order of the positions; unused ones are H or OH. Bridge positions count the residues as written; N and C are the ends. Side chains are listed from the residue outwards. Ends that are not written are not given here. * marks the point of attachment. C20 diacid = O=C(O)CCCCCCCCCCCCCCCCCCC(=O)*; γGlu = O=C(O)[C@H](CCC(=O)[*:2])N[*:1]

T1: human calcitonin receptor (human, UniProt P30988 25-474)
T1 sequence (looked up): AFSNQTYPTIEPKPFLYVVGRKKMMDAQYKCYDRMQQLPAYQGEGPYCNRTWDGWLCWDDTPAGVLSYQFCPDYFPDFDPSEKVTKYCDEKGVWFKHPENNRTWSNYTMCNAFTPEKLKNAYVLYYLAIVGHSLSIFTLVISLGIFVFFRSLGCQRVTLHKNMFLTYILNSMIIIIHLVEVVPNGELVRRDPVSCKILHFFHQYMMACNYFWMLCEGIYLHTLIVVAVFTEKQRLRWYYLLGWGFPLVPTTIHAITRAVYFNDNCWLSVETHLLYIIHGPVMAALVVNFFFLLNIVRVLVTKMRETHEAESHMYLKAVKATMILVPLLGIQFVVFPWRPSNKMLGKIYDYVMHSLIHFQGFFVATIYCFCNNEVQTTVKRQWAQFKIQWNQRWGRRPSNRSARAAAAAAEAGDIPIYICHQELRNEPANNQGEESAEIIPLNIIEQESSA

B1: N^ε1-[(4S)-4-carboxy-4-(19-carboxynonadecanoylamino)butanoyl]-[His14,Arg17,Pro21,Pro27]-h-amylin (peptide)
peptide: K([γGlu-C20 diacid])CNTATCATQRLAHFLRHSSPNFGAIPSSTNVGSNTY-NH2
modifications: disulfide 2-7; N-terminus assumed
SMILES: CC[C@H](C)[C@H](NC(=O)[C@H](C)NC(=O)CNC(=O)[C@H](Cc1ccccc1)NC(=O)[C@H](CC(N)=O)NC(=O)[C@@H]1CCCN1C(=O)[C@H](CO)NC(=O)[C@H](CO)NC(=O)[C@H](Cc1c[nH]cn1)NC(=O)[C@H](CCCNC(=N)N)NC(=O)[C@H](CC(C)C)NC(=O)[C@H](Cc1ccccc1)NC(=O)[C@H](Cc1c[nH]cn1)NC(=O)[C@H](C)NC(=O)[C@H](CC(C)C)NC(=O)[C@H](CCCNC(=N)N)NC(=O)[C@H](CCC(N)=O)NC(=O)[C@@H](NC(=O)[C@H](C)NC(=O)[C@@H]1CSSC[C@H](NC(=O)[C@@H](N)CCCCNC(=O)CC[C@H](NC(=O)CCCCCCCCCCCCCCCCCCC(=O)O)C(=O)O)C(=O)N[C@@H](CC(N)=O)C(=O)N[C@@H]([C@@H](C)O)C(=O)N[C@@H](C)C(=O)N[C@@H]([C@@H](C)O)C(=O)N1)[C@@H](C)O)C(=O)N1CCC[C@H]1C(=O)N[C@@H](CO)C(=O)N[C@@H](CO)C(=O)N[C@H](C(=O)N[C@@H](CC(N)=O)C(=O)N[C@H](C(=O)NCC(=O)N[C@@H](CO)C(=O)N[C@@H](CC(N)=O)C(=O)N[C@H](C(=O)N[C@@H](Cc1ccc(O)cc1)C(N)=O)[C@@H](C)O)C(C)C)[C@@H](C)O
notes: analogue of human amylin; also called compound 70
B2: N^ε1-[(4S)-4-carboxy-4-[[(4S)-4-carboxy-4-(19-carboxynonadecanoylamino)butanoyl]amino]butanoyl]-[Asp14,Arg17,Pro21,Pro26,Asp35]-h-amylin (peptide)
peptide: K([γGlu-γGlu-C20 diacid])CNTATCATQRLADFLRHSSPNFGAPLSSTNVGSDTY-NH2
modifications: disulfide 2-7; N-terminus assumed
SMILES: CC(C)C[C@H](NC(=O)[C@H](CCCNC(=N)N)NC(=O)[C@H](CCC(N)=O)NC(=O)[C@@H](NC(=O)[C@H](C)NC(=O)[C@@H]1CSSC[C@H](NC(=O)[C@@H](N)CCCCNC(=O)CC[C@H](NC(=O)CC[C@H](NC(=O)CCCCCCCCCCCCCCCCCCC(=O)O)C(=O)O)C(=O)O)C(=O)N[C@@H](CC(N)=O)C(=O)N[C@@H]([C@@H](C)O)C(=O)N[C@@H](C)C(=O)N[C@@H]([C@@H](C)O)C(=O)N1)[C@@H](C)O)C(=O)N[C@@H](C)C(=O)N[C@@H](CC(=O)O)C(=O)N[C@@H](Cc1ccccc1)C(=O)N[C@@H](CC(C)C)C(=O)N[C@@H](CCCNC(=N)N)C(=O)N[C@@H](Cc1c[nH]cn1)C(=O)N[C@@H](CO)C(=O)N[C@@H](CO)C(=O)N1CCC[C@H]1C(=O)N[C@@H](CC(N)=O)C(=O)N[C@@H](Cc1ccccc1)C(=O)NCC(=O)N[C@@H](C)C(=O)N1CCC[C@H]1C(=O)N[C@@H](CC(C)C)C(=O)N[C@@H](CO)C(=O)N[C@@H](CO)C(=O)N[C@H](C(=O)N[C@@H](CC(N)=O)C(=O)N[C@H](C(=O)NCC(=O)N[C@@H](CO)C(=O)N[C@@H](CC(=O)O)C(=O)N[C@H](C(=O)N[C@@H](Cc1ccc(O)cc1)C(N)=O)[C@@H](C)O)C(C)C)[C@@H](C)O
notes: analogue of human amylin; also called compound 1

Biological target: T1, human calcitonin receptor
Assay: cell-based or functional assay

Binder | hCTR funct. EC50 | Ratio hCT/hAmylin funct.
B1 | 0.715 nM | –
B2 | 2.7 nM | 12
